A short description of data set [1]: PES1 IP, HA-Ub blot, MG132, HEK293T. The following applies: glycan lost; control: FOXK1 WT, PFOS-treated.
Data set [2] can be described thus: immunoblot, HEK293T. The following applies: glycan lost; control: FOXK1 WT, PFOS-treated. Background: Immunoblotting shows a protein as a band on a membrane.
Data set [3] in a line: cycloheximide chase, PES1 immunoblot, HEK293T. The note with it: glycan lost; control: FOXK1 WT.

B1: forkhead box k1 (FOXK1): FOXK1 T573A (protein)
parent chain: MAEVGEDSGARALLALRSAPCSPVLCAAAAAAAFPATTSPPPPAQPPPGPPALPAEPGPGPVPSTVATATTTAPALVAAAAASVRQSPGPALARLEGREFEFLMRQPSVTIGRNSSQGSVDLSMGLSSFISRRHLQLSFQEPHFYLRCLGKNGVFVDGAFQRRGAPALQLPQQCTFRFPSTAIKIQFTSLYHKEEAPASPLRPLYPQISPLKIHIPEPDLRSLVSPIPSPTGTISVPNSCPASPRGAGSSSYRFVQNVTSDLQLAAEFAAKAASEQQADASGGDSPKDESKPPYSYAQLIVQAISSAQDRQLTLSGIYAHITKHYPYYRTADKGWQNSIRHNLSLNRYFIKVPRSQEEPGKGSFWRIDPASEAKLVEQAFRKRRQRGVSCFRTPFGPLSSRSAPASPTHPGLMSPRSSGLQTPECLSREGSPIPHDPDLGSKLASVPEYRYSQSAPGSPVSAQPVIMAVPPRPSNLVAKPVAYMPASIVTSQQPSGHAIHVVQQAPTVTMVRVVTTSANSANGYILASQGSTGTSHDTAGTAVLDLGNEARGLEEKPTIAFATIPAASRVIQTVASQMAPGVPGHTVTILQPATPVTIGQHHLPVRAVTQNGKHAVPTNSLTGNAYALSSPLQLLAAQASSSTPVVITRVCEVGPEEPAAAVSVAANAAPTPAASTTTSASSSGEPEVKRSRVEEPGGTATTQPTAMAATGPQGPGTGE
As to B1, the “other: PES1 ubiquitination” value in data set [1] is “increases”. Besides, the “other: PES1 protein level” value in data set [2] is listed as “decreases”. Moreover, in data set [3], the “other: PES1 degradation” value is on record as “increases”.

For the origin of these results see publication PMC12948240.
